Here are results for 3 molecules from US20240343811A1 (SHANDONG SIMCERE BIOPHARMACUTICAL, published 2024).

Test [1] deals with T1, cynomolgus monkey CD16, full length, on FlpinCHO cells (cynomolgus monkey, UniProt Q8SPW2 17-254).
T1 construct: also called FlpinCHO-cyno CD16; Flipin CHO-cyno CD16
Nature of the test: FACS on FlpinCHO cells. The protocol:
(§1) The required cells were scale-up cultured in a T-75 cell culture flask to the logarithmic growth phase. The medium was aspirated, and the cells were washed twice with a PBS buffer and then digested with trypsin. After the digestion was terminated, the cells were washed twice with the PBS buffer. The cells were counted, and then the cell pellet was resuspended with a [PBS+2% (w/w) BSA] blocking solution to 2×10⁶ cells/ml, and added to a 96-well FACS reaction plate at 50 μl/well. […] 50 μl/well of the antibody to be detected was added at different concentrations, and incubated on ice for 1 hour. […] The mixture was centrifuged and washed 5 times with PBS, and FACS (FACS Canto II, purchased from BD Company) was used for detection and result analysis. Data analysis was performed by software (CellQuest) to obtain the mean fluorescence intensity (MFI) of the cells. Then, software (GraphPad Prism8) was used for analysis, data fitting and EC50 value calculation.
Flipin CHO-cyno CD16 cells were subjected to FACS detection and data analysis according to the method of Example 3.1.

In test [2] the target is T2, human CD16a (158F), full length, on FlpinCHO cells (human, UniProt P08637 17-254). The experiment in a line: FACS on FlpinCHO cells. The protocol:
as §1
(§2) The binding of a humanized antibody to FlpinCHO-human CD16a cells was detected according to the method of Example 3.1.

Test [3] addresses T3, human CD16a (158V), full length, on cells (human, UniProt P08637 17-254).
T3 construct: also used as target for the bought Jurkat-NFAT reporter line stably expressing human CD16a (158V); also called FlpinCHO-human CD16a (158V); FlpinCHO-CD16a (158V)
Nature of the test: FACS on FlpinCHO cells. The protocol: as §1, §2

Test [4] deals with T3, human CD16a (158V), full length, on …. The experiment in a line: cell-based or functional assay.
The target of test [5] is T4, human CD16b (NA2), full length, on FlpinCHO cells (human, UniProt O75015 17-200).
T4 construct: also called FlpinCHO-human CD16b (NA2)
T4 chain: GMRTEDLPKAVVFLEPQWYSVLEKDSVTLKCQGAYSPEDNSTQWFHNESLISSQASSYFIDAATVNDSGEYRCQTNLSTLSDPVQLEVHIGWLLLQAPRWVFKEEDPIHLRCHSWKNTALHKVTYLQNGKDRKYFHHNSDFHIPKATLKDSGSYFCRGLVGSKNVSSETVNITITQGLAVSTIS
Nature of the test: FACS on FlpinCHO cells. The protocol:
as §1
(§3) The binding of an antibody to be detected to FlpinCHO-human CD16b cells was detected according to the method of Example 3.1.

For test [6], the target named is T5, human CD16b (NA1), full length, on FlpinCHO cells (human, UniProt O75015 17-200).
T5 construct: also called FlpinCHO-human CD16b (NA1)
T5 chain: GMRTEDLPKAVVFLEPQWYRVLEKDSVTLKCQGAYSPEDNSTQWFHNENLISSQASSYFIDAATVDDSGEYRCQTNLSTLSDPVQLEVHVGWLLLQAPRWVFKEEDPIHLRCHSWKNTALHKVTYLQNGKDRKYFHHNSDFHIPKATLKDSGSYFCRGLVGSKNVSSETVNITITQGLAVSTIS
The experiment in a line: FACS on FlpinCHO cells. The protocol:
as §1, §3

The next test concerns the target T6, Human CD16a (158F)-his (human).
T6 construct: entry holds ECD, AVI tag, linker and His tag
The experiment in a line: SPR (Biacore), antibody captured on Protein A. The method in brief:
(§4)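 Protein A–captured antibody was probed with CD16-his ECD in HBS-EP+ at 25 °C: five 2-fold dilutions from 200 nM, 240 s at 30 μL/min, dissociation up to 600 s. Glycine pH 1.5 regenerated the chip. Apparent KD came from a double-referenced 1:1 Langmuir fit.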

Test [7] has as its target T3, human CD16a (158V), full length, on …. The experiment in a line: cell-based or functional assay. This is another data set of the same source.
The target in test [8] is T2, human CD16a (158F), full length, on …. The experiment in a line: FACS on FlpinCHO cells. The method in brief: (§5)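 Trypsinised cells in PBS + 2% BSA were incubated on ice for 1 hour with antibody at a range of concentrations. After washes, mean fluorescence intensity was read by flow cytometry. EC50 values were derived by curve fitting of MFI.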
This is another data set of the same source.

Test [9] deals with T3, human CD16a (158V), full length, on …. The experiment in a line: FACS on FlpinCHO cells. The method in brief: as §5
This is another data set of the same source.

Test [10] addresses T4, human CD16b (NA2), full length, on …. The experiment in a line: FACS on FlpinCHO cells. The method in brief: (§6)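 Trypsin-detached FlpinCHO cells expressing full-length CD16b were blocked in PBS+2% BSA and incubated on ice for 1 hour with antibody at varying concentrations. Binding read by flow cytometry as MFI; EC50 from curve fitting.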
Test [11] deals with T5, human CD16b (NA1), full length, on …. The experiment in a line: FACS on FlpinCHO cells. The method in brief: as §6
The target in test [12] is T7, CD16 on primary human NK cells (human, UniProt P08637 17-254).
T7 construct: whole, on cells; also called resting NK cells
Nature of the test: FACS on human NK cells. The protocol:
as §1
The binding of an antibody to be detected to freshly prepared human NK cells (Milestone Biotechnologies, catalog number: PB56-N-Custom) was detected according to the method of Example 3.1.

The target in test [13] is T2, human CD16a (158F), full length, on …. Nature of the test: FACS, biotinylated antibody.
Test [14] addresses T3, human CD16a (158V), full length, on …. The experiment in a line: FACS, biotinylated antibody. In general terms: In flow cytometry, cells or beads pass a laser one at a time.
Test [15] has as its target T2, human CD16a (158F), full length, on …. The experiment in a line: FACS, biotinylated antibody, +10 mg/mL human immunoglobulin.
The target in test [16] is T3, human CD16a (158V), full length, on …. The description is as above.
Another test deals with T8, Human CD16b (NA1)-his (human).
T8 construct: entry holds ECD, linker, His tag and AVI tag
T8 chain: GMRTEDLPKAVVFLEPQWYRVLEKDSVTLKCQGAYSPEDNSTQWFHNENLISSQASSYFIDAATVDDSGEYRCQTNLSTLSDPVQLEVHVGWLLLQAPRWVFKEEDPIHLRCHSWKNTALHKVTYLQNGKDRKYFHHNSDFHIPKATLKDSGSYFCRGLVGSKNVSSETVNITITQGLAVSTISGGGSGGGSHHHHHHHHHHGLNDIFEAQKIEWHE
The experiment in a line: SPR (Biacore), antibody captured on Protein A. The method in brief: as §4

In a further test the target is T9, Human CD16a (158V)-his (human).
T9 construct: entry holds ECD, AVI tag, linker and His tag
The experiment in a line: SPR (Biacore), antibody captured on Protein A. The method in brief: as §4
(In SPR one partner is held on a chip, and binding of the other changes the refractive index at the surface.)

Read-outs that look alike come from different tables or passages of the source.

T1 sequence (Q8SPW2 other isoform, or with tags, fused parts or gaps limits assumed): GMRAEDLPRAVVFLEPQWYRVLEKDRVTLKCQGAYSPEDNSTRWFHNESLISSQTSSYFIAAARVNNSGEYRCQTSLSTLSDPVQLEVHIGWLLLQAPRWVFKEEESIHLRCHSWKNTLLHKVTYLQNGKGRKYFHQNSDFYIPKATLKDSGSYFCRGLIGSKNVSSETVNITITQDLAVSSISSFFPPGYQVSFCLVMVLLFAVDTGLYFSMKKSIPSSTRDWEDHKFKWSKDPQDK

B1: VHH12-04 humanized VHH-Fc antibody (Fc fusion)
chain: EVQLVESGGGLVQPGGSLRLSCAASGITFSSYAMGWYRQAPGKQRELVAAINRFGLTNYADFVKGRFTISRDNAKNSLYLQMNSLRAEDTAVYYCNTGGVYSHPDYYTGTYWGQGTMVTVSSEPKSSDKTHTCPPCPAPEEFGGPSVFLFPPKPKDTLMISRTPEVTCVVVAVSHEDPEVKFNWYVDGVEVHNAKTKPREEQYNSTYRVVSVLTVLHQDWLNGKEYKCKVSNKALPAPIEKTISKAKGQPREPQVYTLPPSREEMTKNQVSLTCLVKGFYPSDIAVEWESNGQPENNYKTTPPVLDSDGSFFLYSKLTVDKSRWQQGNVFSCSVMHEALHNHYTQKSLSLSPGK
Broadly, the EC50 is the concentration giving half of the maximal effect. Broadly, the Kd is a measure of binding affinity in units of concentration. By koff is commonly meant the first-order rate constant of dissociation. As a reminder, the kon is the second-order rate constant of association. For B1, in [1], the EC50 came out at 0.64 nM and the “Maximum mean fluorescence intensity” value stood at 18300. In test [2], the response was half-maximal at 0.47 nM (EC50) and the “Maximum mean fluorescence intensity” value worked out at 9410. In [3], the half-maximal effective concentration (EC50) stood at 0.47 nM and the “Maximum mean fluorescence intensity” value was found to be 8090. Further, in test [4], the “EC50, activation activity for Jurkat cell” value (“EC50, activation activity” for short) stood at 0.01 nM and the Maximum fluorescence value amounted to 162000. Besides, the “Maximum mean fluorescence intensity” value in test [5] came to 75400. Further, in [6], a half-maximal response (EC50) required 1.37 nM and the “Maximum mean fluorescence intensity” value came out at 47200. In the test with Human CD16a (158F)-his, this molecule returned a Kd of 50.5 nM, a koff of 0.0307 s⁻¹ and a kon of 607000 M⁻¹ s⁻¹.

B2: VHH12-07 humanized VHH-Fc antibody (Fc fusion)
chain: EVQLVESGGGLVQPGGSLRLSCAASGITFSSYAMGWYRQAPGKQRELVAAINRFGLTNYVDSVKGRFTISRDNAKNSLYLQMNSLRAEDTAVYYCNTGGVYSHPDYYTGTYWGQGTQVTVSSEPKSSDKTHTCPPCPAPEEFGGPSVFLFPPKPKDTLMISRTPEVTCVVVAVSHEDPEVKFNWYVDGVEVHNAKTKPREEQYNSTYRVVSVLTVLHQDWLNGKEYKCKVSNKALPAPIEKTISKAKGQPREPQVYTLPPSREEMTKNQVSLTCLVKGFYPSDIAVEWESNGQPENNYKTTPPVLDSDGSFFLYSKLTVDKSRWQQGNVFSCSVMHEALHNHYTQKSLSLSPGK
For B2, the EC50 was 0.68 nM in test [1], 0.46 nM in test [2], 0.48 nM in [3] and 1.25 nM in test [6]. In addition, the “Maximum mean fluorescence intensity” value in test [1] amounted to 18500; in test [2], 9180; in test [3], 7950; in test [5] it was 73200; in [6], 45500. The “EC50, activation activity” value in [4] was found to be 0.03 nM. Also, the Maximum fluorescence value in test [4] is 153000. The molecule also showed a Kd with Human CD16a (158F)-his of 55.8 nM. The koff with Human CD16a (158F)-his came out at 0.032 s⁻¹. Also, the kon in the test with Human CD16a (158F)-his came out at 574000 M⁻¹ s⁻¹.

B3: VHH04 VHH-Fc antibody (Fc fusion)
chain: QVQLVESGGGLVQAGGSLRLSCVGSSSTLTTYAVRWYRQAPGKQREWVAFISVDGNTNYPDSVKGRFIVSRDNAKNTVYLQMNNLKPEDTADYICRAGGQYWGQGTQVTVSSEPKSSDKTHTCPPCPAPEFEGGPSVFLFPPKPKDTLMISRTPEVTCVVVAVSHEDPEVKFNWYVDGVEVHNAKTKPREEQYNSTYRVVSVLTVLHQDWLNGKEYKCKVSNKALPAPIEKTISKAKGQPREPQVYTLPPSREEMTKNQVSLTCLVKGFYPSDIAVEWESNGQPENNYKTTPPVLDSDGSFFLYSKLTVDKSRWQQGNVFSCSVMHEALHNHYTQKSLSLSPGK
B3: the “EC50, activation activity” value in [7] worked out at 0.03 nM. In test [7], this molecule displayed a Maximum fluorescence value of 161000. Moreover, the EC50 was found to be 0.66 nM in test [8]; 0.68 nM in [9]; 1.33 nM in [11]; 0.74 nM in test [12]; 0.32 nM in [13]; 0.65 nM in test [14]. Also, the EC50 in test [15] and in test [16] was 1.51 nM throughout. Moreover, the “Maximum mean fluorescence intensity” value was found to be 7240 in test [8]; 7660 in test [9]; 351 in [10]; 41400 in test [11]; 2430 in test [12]; 6160 in [13]. For the same molecule, the “Maximum mean fluorescence intensity” value in [14] was found to be 9200; in test [15], 7580; in [16], 10400. Further, the binding result in test [10] was “no binding (tested: 100 nM)”. In addition, the Kd is 23.4 nM with Human CD16a (158F)-his, 21.6 nM in the test with Human CD16b (NA1)-his and 8.93 nM with Human CD16a (158V)-his. The koff with Human CD16a (158F)-his is 0.00128 s⁻¹; with Human CD16b (NA1)-his, 0.00265 s⁻¹; in the test with Human CD16a (158V)-his, 0.000738 s⁻¹. Further, the kon with Human CD16a (158F)-his was 54700 M⁻¹ s⁻¹; with Human CD16b (NA1)-his it was 122000 M⁻¹ s⁻¹; in the test with Human CD16a (158V)-his, 82600 M⁻¹ s⁻¹.
